Patent US20130156764A1, “NEUTRALIZATION OF FLT3 LIGAND AS A LEUKEMIA THERAPY” (The Johns Hopkins University, priority 2010, published 2013)

Key:
[1] = test system: AKT and MAPK phosphorylation; assay: FL stimulation, downstream signaling immunoblot in BaF3/ITD and BaF3/TKD cells; type: cell-based
Experimental: (§1) TF1 and BaF3 cells were transfected with pCINeo constructs containing either FLT3/ITD or FLT3/TKD mutation by electroporation (Bio-Rad, Hercules, Calif.). Stable transfectants were then selected by limiting dilution in 96-well plates with 1 mg/mL G418 (Invitrogen, Carlsbad, Calif.).
BaF3 is another cell line lacking expression of endogenous FLT3. BaF3 cells transfected with mutant forms of FLT3 were starved in serum-free medium for 16 hours and washed with PBS before FL stimulation. […] Changes of other FLT3 downstream signals were not observed. An MTT survival assay was performed in BaF3/ITD and BaF3/TKD cells cultured in serum-free medium in the presence and absence of FL for 4 days. […] The effect was also confirmed by counting viable cell numbers by trypan blue exclusion (FIG. 13C, P<0.05). These findings indicate that FL stimulation prolongs the survival of cells expressing FLT3 mutants.

[2] = test system: STAT5 and AKT phosphorylation; assay: FL stimulation, downstream signaling in MV411 cells; type: cell-based, human
[3] = test system: TF1/ITD and TF1/TKD cells; assay: Apoptosis (Annexin V/7AAD) and survival of TF1/ITD and TF1/TKD cells with FL; type: cell-based; details: for survival (viable cell numbers): serum free medium; for apoptotic population: serum-free, 48 hours, presence of FL
Experimental: Evaluation of apoptosis was performed by annexin V/7-AAD staining according to the recommendations of the manufacturer (Becton Dickinson, San Jose, Calif.). After serum starvation, 5×10^5 cells were washed with cold PBS and re-suspended in 100 μL of binding buffer. Following incubation with 5 μL of annexin V-PE and 5 μL of 7-AAD in the dark for 15 minutes at room temperature, cells were analyzed by flow cytometry (FACSort, Becton Dickinson) with Cell Quest software (Becton Dickinson). Compensation was performed with samples stained with either annexin V-PE or 7-AAD alone.
2×10^4 cells in 100 μl serum-free medium were plated into triplicate wells of 96-well plates. Survival was assessed by MTT assay (Roche, Indianapolis, Ind.) and viable cell number counting by trypan blue (GIBCO, Rockville, Md.) exclusion according to the manufacturer's instructions.
(§2) The possibility of further activation of FLT3 mutant receptors by exogenous FL was also tested in cell lines in which FL autocrine, paracrine, or intracrine stimulation of FLT3 receptor might exist. […] TF1 cells expressing FLT3 mutant receptors were starved for 16 hours in serum-free medium and washed once with PBS to deplete soluble FL (either produced by the cells or contained in the serum). These cells were then stimulated with exogenous FL for 15 minutes. More than 2-fold enhancement of FLT3 phosphorylation was detected in both TF1/ITD and TF1/TKD cell lines (FIG. 12A). […] To assess the functional effect of exogenous FL, TF1/ITD and TF1/TKD cells were cultured in serum-free medium in the absence and presence of FL for 48 hours. Apoptosis was assessed by Annexin V and 7AAD staining followed by FACS analysis. […] There was no change of cell cycle status in response to FL in these cells (data not shown).

[4] = test system: STAT5 and AKT phosphorylation; assay: FL stimulation, downstream signaling immunoblot in TF1/ITD and TF1/TKD cells; type: cell-based
Experimental: as §1, §2

FLT3/ITD in MV411 cells = biological target: T1, FLT3/ITD in MV411 cells (Homo sapiens, UniProt P36888, INS600HVDFREYEYD); assay: FL stimulation, FLT3 phosphorylation in MV411 cells; type: cell-based
T1 construct: endogenous in cells; host or cells: MV411
T1 sequence (P36888 with tags, fused parts or gaps INS600HVDFREYEYD): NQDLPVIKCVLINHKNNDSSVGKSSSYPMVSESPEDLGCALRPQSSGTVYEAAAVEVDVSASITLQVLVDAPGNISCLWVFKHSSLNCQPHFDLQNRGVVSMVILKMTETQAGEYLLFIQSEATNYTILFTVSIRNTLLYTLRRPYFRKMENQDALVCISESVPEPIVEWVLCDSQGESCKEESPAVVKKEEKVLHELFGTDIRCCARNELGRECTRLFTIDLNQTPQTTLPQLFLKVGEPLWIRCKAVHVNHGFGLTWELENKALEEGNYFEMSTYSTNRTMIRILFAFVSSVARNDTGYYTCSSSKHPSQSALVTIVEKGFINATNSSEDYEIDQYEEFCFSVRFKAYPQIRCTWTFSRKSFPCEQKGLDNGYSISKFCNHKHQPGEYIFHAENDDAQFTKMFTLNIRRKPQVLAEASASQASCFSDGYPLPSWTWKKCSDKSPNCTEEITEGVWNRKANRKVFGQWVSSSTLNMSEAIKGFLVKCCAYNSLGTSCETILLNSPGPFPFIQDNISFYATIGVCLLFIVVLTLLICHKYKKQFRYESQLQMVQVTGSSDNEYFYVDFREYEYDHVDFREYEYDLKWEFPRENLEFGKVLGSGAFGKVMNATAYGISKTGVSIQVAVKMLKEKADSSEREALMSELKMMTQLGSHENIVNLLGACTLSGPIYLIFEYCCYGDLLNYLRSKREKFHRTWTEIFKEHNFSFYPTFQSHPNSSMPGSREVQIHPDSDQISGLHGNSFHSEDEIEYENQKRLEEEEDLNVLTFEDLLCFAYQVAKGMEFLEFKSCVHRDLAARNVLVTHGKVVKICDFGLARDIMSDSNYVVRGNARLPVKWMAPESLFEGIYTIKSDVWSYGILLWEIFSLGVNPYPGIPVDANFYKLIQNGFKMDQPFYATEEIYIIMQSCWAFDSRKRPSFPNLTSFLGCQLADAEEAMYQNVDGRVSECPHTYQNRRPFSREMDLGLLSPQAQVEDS

MAPK phosphorylation = assay: FL stimulation, MAPK phosphorylation in primary AML blasts with homozygous FLT3/ITD; type: cell-based, human; details: 100 ng/mL FL
Experimental: (§3) To study whether further activation of mutant FLT3 receptors in response to FL also occurs in primary cells, experiments were carried on primary AML blasts expressing homozygous FLT3/ITD mutations (i.e., no detectable wild type FLT3 by PCR). The blasts were stimulated with 100 ng/mL FL. […] The survival of AML blasts was assessed by culturing them in complete medium with and without FL for 4 days.

[5] = test system: FLT3/ITD in primary AML blasts; assay: FL stimulation, FLT3 phosphorylation in primary AML blasts with homozygous FLT3/ITD; type: cell-based, human; details: 100 ng/mL FL
Experimental: as §3

B1: FL: Recombinant human FL (fms-related tyrosine kinase ligand) purchased from PeproTech; SEQ ID NO: 1 (protein, listed as Homo sapiens)
chain: MTVLAPAWSPTTYLLLLLLLSSGLSGTQDCSFQHSPISSDFAVKIRELSDYLLQDYPVTVASNLQDEELCGGLWRLVLAQRWMERLKTVAGSKMQGLLERVNTEIHFVTKCAFQPPPSCLRFVQTNISRLLQETSEQLVALKPWITRQNFSRCLELQCQPDSSTLPPPWSPRPLEATAPTAPQPPLLLLLLLPVGLLLLAAAWCLHWQRTRRRTPRPGEQVPPVPSPQDLLLVEH
increase of phosphorylation of AKT ([1]; BaF3/ITD): 1.3 fold | MAPK phosphorylation ([1]; BaF3/ITD and BaF3/TKD): increase of MAPK phosphorylation | increase of phosphorylation of AKT ([1]; BaF3/TKD): 2.2 fold | phosphorylation of FLT3 downstream signaling, including STAT5 and AKT [2]: Slightly enhanced phosphorylation | cell cycle status in response to FL ([3]; TF1/ITD and TF1/TKD): no change | survival (viable cell numbers) ([3]; TF1/ITD): increased the survival | apoptotic population ([3]; TF1/ITD): 49.54% | survival (viable cell numbers) ([3]; TF1/TKD): no significant difference | apoptotic population ([3]; TF1/TKD): 31.63% | AKT phosphorylation and AKT protein expression ([4]; TF1/ITD and TF1/TKD after FL stimulation): Slightly increased | STAT5 phosphorylation increase ([4]; both TF1/ITD and TF1/TKD): 1.8 fold | phosphorylation of FLT3 (FLT3/ITD in MV411 cells): increased phosphorylation | samples with increased MAPK phosphorylation (MAPK phosphorylation): two out of four samples | FLT3 phosphorylation [5]: enhanced FLT3 phosphorylation
